“And” between values parts separate entries of the source, which are not always exact repeats. Equal values may be shown once.
Assays:
[1] = target: recombinant neuraminidase (rNA) of B/Wisconsin/1/10 (influenza B virus B/Wisconsin/1/10)
[2] = target: recombinant neuraminidase (rNA) of B/Malaysia/2506/04 (influenza B virus B/Malaysia/2506/04)

B1: HC0LC0 (antibody, V domains shown)
VH: QVHLQQSGPEVARPGASVKLSCKASGYTFTDYYLNWVKQRPRQGLEWIGQIHPGSTNTYYNEKFKGKATLTADKSSSTAYMQLSSLTSEDSAVYFCARSLGDGYYVYAMDYWGQGTAVTVSS
VL: DIVMTQSQKFMSTSVGDRVSVTCKASQNVVTNVVWYQQKPGQSPKPLIYSASYRYSGVPDRFTGSGSGTDFTLTISNVQSEDLAEYCCQQYHSYPFTFGSGTKLEVKR
Early Stability X=902 [1]: 0.32 nm and 0.3 nm and 0.33 nm
% Dissociation [2]: 0.52% and 0%

From patent publication US20220153873A1 (ICAHN SCHOOL OF MEDICINE AT MOUNT SINAI, published 2022)
